Results on one substance are retold here after patent US20080242633A1.

In the test the target is Apaf-1 (UniProt O14727). Description: cell-based or functional assay.
UniProt O14727, sequence (O14727 whole entry): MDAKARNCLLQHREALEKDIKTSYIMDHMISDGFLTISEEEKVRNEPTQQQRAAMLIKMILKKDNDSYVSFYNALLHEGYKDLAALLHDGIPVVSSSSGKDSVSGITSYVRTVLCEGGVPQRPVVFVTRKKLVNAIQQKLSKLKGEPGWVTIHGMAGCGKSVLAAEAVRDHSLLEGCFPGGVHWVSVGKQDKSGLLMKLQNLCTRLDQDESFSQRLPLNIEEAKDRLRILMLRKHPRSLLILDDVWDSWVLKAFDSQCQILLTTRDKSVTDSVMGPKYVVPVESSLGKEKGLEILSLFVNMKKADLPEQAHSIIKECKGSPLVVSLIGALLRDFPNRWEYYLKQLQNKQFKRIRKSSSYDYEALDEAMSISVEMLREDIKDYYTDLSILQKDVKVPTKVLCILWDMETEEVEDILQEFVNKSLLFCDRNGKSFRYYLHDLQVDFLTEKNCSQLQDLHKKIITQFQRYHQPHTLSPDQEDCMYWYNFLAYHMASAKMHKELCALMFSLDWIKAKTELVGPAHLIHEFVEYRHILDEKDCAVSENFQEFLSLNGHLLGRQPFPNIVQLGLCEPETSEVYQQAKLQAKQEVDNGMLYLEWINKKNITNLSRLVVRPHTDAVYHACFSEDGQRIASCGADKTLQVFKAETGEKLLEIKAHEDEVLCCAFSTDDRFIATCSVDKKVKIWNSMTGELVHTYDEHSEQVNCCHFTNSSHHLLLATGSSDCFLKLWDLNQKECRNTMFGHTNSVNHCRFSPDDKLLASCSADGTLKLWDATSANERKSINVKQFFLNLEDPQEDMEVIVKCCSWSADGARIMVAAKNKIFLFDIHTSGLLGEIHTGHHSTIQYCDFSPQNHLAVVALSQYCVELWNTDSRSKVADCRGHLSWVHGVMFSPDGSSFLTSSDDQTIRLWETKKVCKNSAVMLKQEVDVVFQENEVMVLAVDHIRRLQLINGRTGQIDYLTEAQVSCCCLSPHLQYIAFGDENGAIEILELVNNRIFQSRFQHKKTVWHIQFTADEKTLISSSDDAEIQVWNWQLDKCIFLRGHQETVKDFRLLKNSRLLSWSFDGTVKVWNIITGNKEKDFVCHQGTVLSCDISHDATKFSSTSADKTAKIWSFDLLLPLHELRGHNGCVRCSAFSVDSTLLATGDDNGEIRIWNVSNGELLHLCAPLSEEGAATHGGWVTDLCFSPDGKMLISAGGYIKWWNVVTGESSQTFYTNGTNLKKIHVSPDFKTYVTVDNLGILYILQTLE

Substance “CYCS(Gly42-Ser) (from UniProt P99999 2-105)” gave a caspase-3 activation activity (AMC production rate from Ac-DEVD-AMC, cell-free assay with U-937 cytosol) (fold greater than wild type) of 1.4.
